Measurements from patent US20220144895A1, “DE NOVO DESIGN OF TUNABLE PH-DRIVEN CONFORMATIONAL SWITCHES” (University of Washington, priority 2019, published 2022).
Numbering of substitutions follows the chain as printed. In names and notes the source's numbering stands. Entries after “also recorded” stand apart in the source; their conditions may differ.

Assays:
[1] = target: the molecule itself; assay: native mass spectrometry; homotrimer
Procedure: Oligomeric state was assessed by size-exclusion chromatography (SEC) and native mass spectrometry (24).
Samples were buffer exchanged twice into 200 mM ammonium acetate (NH₄Ac; MilliporeSigma) using Micro Bio-Spin P-6 columns (Bio-Rad). Protein concentrations were determined by UV absorbance using a Nanodrop 2000c spectrophotometer (Thermo Fisher Scientific) and diluted to make up a 10-fold stock solution (50 μM and 16.7 μM monomer and trimer concentration, respectively). 1 μL of this solution was mixed with 9 μL 200 mM NH₄Ac/50 mM triethylammonium acetate (TEAA; MilliporeSigma), adjusted with acetic acid (Fisher Scientific) to obtain the desired final pH and incubated on ice for 30 min.

[2] = Circular dichroism: GdmCl chemical denaturation and temperature melts; conditions: CD at 222 nm, PBS pH 7.4 or Na2PO4-Citrate at lower pH
Description: For low-pH experiments involving circular dichroism (CD), small-angle X-ray scattering (SAXS), and size exclusion chromatography (SEC), Na2PO4-Citrate buffer was used to ensure that a single buffer system could be used that was stable over the entire pH range to be tested. Buffers were made using established ratios of stock solutions of 0.2 M Na2PO4 and 0.1 M Citrate; final pH was adjusted using hydrochloric acid (HCl) or sodium hydroxide (NaOH) if needed.
CD wavelength scans (260 to 195 nm) and temperature melts (25 to 95° C.) were measured using a JASCO™ J-1500 or an AVIV™ model 420 CD spectrometer. Temperature melts monitored absorption signal at 222 nm and were carried out at a heating rate of 4° C./min; protein samples were at 0.25 mg/mL in either phosphate buffered saline (PBS) pH 7.4 or Na2PO4-Citrate at indicated pH values (see Buffers systems for varying pH). Guanidinium chloride (GdmCl) titrations were all performed on an AVIV 420 spectrometer with an automated titration apparatus using either PBS pH 7.4 or Na2PO4-Citrate buffers at indicated pH at room temperature, monitoring helical signal at 222 nm, using a protein concentration of 0.025 mg/mL in a 1 cm cuvette with stir bar. Each titration consisted of at least 30 evenly distributed concentration points with one minute mixing time for each step. Titrant solution consisted of the same concentration of protein in the same buffer system plus GdmCl; GdmCl concentration of starting solutions was determined by reactive index.

[3] = Native mass spectrometry of pH-induced changes in oligomeric state; assay type: physicochemical; conditions: for cooperativity of the pH-induced transition: native MS at different pH values; for pH transition point of disassembly (pH set point, pH0) / pH response of oligomeric state (pH-induced disassembly): native MS; for pH transition point of disassembly (pH set point, pH0): evaluated from pH 7 down to pH 3; for reversibility of disassembly: pH lowered with acetic acid, then raised by ammonia or buffer exchange; for pH response of oligomeric state (pH-induced disassembly): pH ~7 to ~3
Procedure: Samples were buffer exchanged twice into 200 mM ammonium acetate (NH4Ac; MilliporeSigma) using Micro Bio-Spin P-6 columns (Bio-Rad). Protein concentrations were determined by UV absorbance using a Nanodrop 2000c spectrophotometer (Thermo Fisher Scientific) and diluted to make up a 10-fold stock solution (50 μM and 16.7 μM monomer and trimer concentration, respectively). 1 μL of this solution was mixed with 9 μL 200 mM NH4Ac/50 mM triethylammonium acetate (TEAA; MilliporeSigma), adjusted with acetic acid (Fisher Scientific) to obtain the desired final pH and incubated on ice for 30 min. […] 5 μL samples were filled into an in-house pulled glass capillary and ionized by nESI at a monomer or a trimer concentration of 5 μM or 1.67 μM respectively. All pH titration data were acquired on an in-house modified SYNAPT® G2 HDMS (Waters Corporation) with a surface-induced dissociation (SID) device incorporated between a truncated trap traveling wave ion guide and the ion mobility cell (39). The following instrument parameters were used spray voltage 0.9-1.3 kV; sampling cone, 20 V; extraction cone, 2 V; source temperature, room temperature; trap gas flow, 4 mL/min; trap bins, 45V. The data were processed with MassLynx™ v4.1 and DriftScope™ v2.1. For relative quantification, charge state series were extracted from DriftScope™, and smoothed spectra (mean; window 20; number of smooths 20) were integrated.
Python scripts were written to generate theoretical models according Equation 1, and curve-fitting to native mass spectrometry data (FIGS. 1, 3, 5) according to Equation 2 by nonlinear least squares using curve fit from scipy.optimize. The free energy estimates for individual n, m, and l layers used in Equation 1 modeling were estimated by solving linear equations as follows: values for the free energy of folding for designs pRO-2 and variants were estimated from GdmCl denaturation experiments (FIG. 11); each of these designs have different numbers of n, m, and l layers, thus series of linear equations relating the number of each layer type to the total free energies of folding were solved to estimate dG values of the individual layers of each type.

[4] = Fluorescence dequenching liposome leakage (liposome disruption) assay; assay type: biochemical; conditions: for pH-dependent liposome disruption: 2.5 μM protein with respect to monomer, SRB leakage; for liposome disruption activity at pH 4.75: pH 4.75, 2.5 μM protein
Procedure: Liposomes composed of DOPC (1,2-dioleoyl-sn-glycero-3-phosphocholine), DOPC with 25% cholesterol (molar ratio to DOPC), 3:1 DOPC:POPS (1-palmitoyl-2-oleoyl-sn-glycero-3-phospho-L-serine), and 3:1 DOPC:POPS with 25% cholesterol were prepared identically to a final concentration of 5 mM total lipid as previously described (32); lipids from Avanti Polar Lipids. Lipids solubilized in chloroform were dried under nitrogen gas and stored under vacuum for a minimum of 2 hours to remove residual solvent. The dried lipid film was the resuspended in Tris buffer (10 mM Tris, 150 mM NaCl, and 0.02% NaN3 pH 8.0) containing 25 mM Sulforhodamine B (SRB) fluorophore (Sigma) and subjected to 10 sequential freeze thaw cycles in liquid nitrogen. Liposomes were extruded 29 times through 100 nm pore size polycarbonate filters (Avanti Polar Lipids) and purified from free fluorophore using a PD-10 gel filtration column (GE Healthcare) into storage buffer (10 mM Tris, 150 mM NaCl, and 0.02% NaN3 pH 8.0). Liposome size and homogeneity was analyzed by dynamic light scattering (DLS) using a Dynapro Nanostar™ DLS (Wyatt Technologies). On average liposome diameter ranged from 120-130 nm with low polydispersity. Liposomes were stored at 4° C. and used within 5 days of preparation.
Liposome disruption and content leakage was analyzed by fluorescence spectroscopy as previously described (32). […] The solution was rapidly acidified to the target pH by addition of a fixed volume of acidification buffer and incubated for 20 minutes. […] SRB fluorescence is independent of pH within the ranges used here. Finally. Triton X-100 (Sigma) was added to a final concentration of 1% to fully disrupt liposomes. Liposome disruption as indicated by content leakage and SRB dequenching was normalized using the formula [Fω−F(0)]/[F(Max)−F(0)] where F(0) is the average fluorescence intensity before acidification and F(Max) is the average fluorescence intensity ater addition of Triton X-100. All measurements were collected on a Varian Cary Eclipse spectrophotometer using an excitation/emission pairing of […] and 2.5 nm slit widths at 24° C. Any data plotted together was collected using the sum batch of liposomes.

[5] = fused at its n-terminus to a nanoparticle

B1: pRO-2.1 subunit (designed binder)
chain: SEYEIRKALEELKAALAELKRATASLRAITEELKKNPSEDALVEHNRAIVEHNAIIVEVLRIIAAVLELIVRAIK
notes: forms a homotrimer; Tag-free form
binding result [1]: binds

B2: pRO-2.5: pRO-2 variant, SEQ ID NO: 11-12 (protein)
chain 1: MGSHHHHHHGSGSENLYFQGSEYEIRKALEELKASTAELKRATASLRASTEELKKNPSEDALVENNRLIVEHNAIIVENNRIIAAVLELIVRAIK
chain 2: B1 chain with A15S, L16T, I29S, H45N, A48L, V59N, L60N
folding stability by GdmCl denaturation [2]: lowest stability | cooperativity of the pH-induced transition [3]: least cooperative design tested | pH transition point of disassembly (pH set point, pH0) [3]: ~4 pH | reversibility of disassembly [3]: Re-association was induced

B3: pRO-2.5 subunit (designed binder)
chain: B1 chain with A15S, L16T, I29S, H45N, A48L, V59N, L60N
notes: forms a homotrimer; Tag-free form; also called PDB 6MSR
binding result [1]: binds

B4: SEQ ID NO: 40: as SEQ ID NO: 39 but third asparagine network mutated to all hydrophobics (protein)
chain: GSEEEIKRLLEELRKALEELRRITKELDDLSKELRVGGSGSGSLVPRGSGSGSGSHALVEHNKLISEHNRIVVEVLRIIAEILEAIARVGGSGSGSVEVERILDELRKALEELDRVTKELKKLTEELDVGGSGSGSLVPRGSGSGSGSVEALVRHNVLITRHNDIVVKVLDIIAKILKLIAEAVGGSGSGSELERILRELEEALKELRKATEELRRLSEELKVGGSGSGSLVPRGSGSGSGSHEALVRHNEAIVEHNKIVVKVLDIIAKILELITERI
kinetics of liposome disruption relative to pRO2.3, nanoparticle fusion [4, 5]: slower kinetics | liposome disruption better than pRO2.3, nanoparticle fusion [4, 5]: 5-10%

B5: pRO-3.1: pRO-3 variant, SEQ ID NO: 25-26 (protein)
chain 1: MGSHHHHHHGSGSENLYFQGSEALYELEKATRELKKATDELERATEELEKNPSEDALVEHNRLIAEHNKIIAEHNRIIAKVLK
chain 2: GSEALYELEKATRELKKATDELERATEELEKNPSEDALVEHNRLIAEHNKIIAEHNRIIAKVLK
pH-dependent liposome disruption [4]: did not exhibit any liposome disruption | liposome disruption activity at pH 4.75 [4]: does not | pH response of oligomeric state (pH-induced disassembly) [3]: more pH-sensitive than design pRO-3 | reversibility of disassembly [3]: re-association of monomers into trimer

B6: pRO-3: designed homotrimer, SEQ ID NO: 23-24 (protein)
chain 1: B5 chain 1 with T31L, D39A, E40A, E46A, E49K, E66A, H74V, N75L
chain 2: B5 chain 2 with T12L, D20A, E21A, E27A, E30K, E47A, H55V, N56L
pH-dependent liposome disruption [4]: caused pH-dependent liposome disruption | liposome disruption activity at pH 4.75 [4]: shows liposome disruption activity

B7: pRO-2 I70N: pRO-2 mutant, SEQ ID NO: 21-22 (protein)
chain 1: B2 chain 1 with S35A, S49I, N65H, L68A, N79H, I90N
chain 2: GSEYEIRKALEELKAATAELKRATASLRAITEELKKNPSEDALVEHNRAIVEHNAIIVEHNRIIAAVLELNVRAIK
pH-dependent liposome disruption [4]: attenuation of pH-induced liposome disruption | pH-dependent liposome disruption ([4]; listed as pRO-2170N): attenuates liposome activity

B8: pRO-2 A54M: pRO-2 mutant, SEQ ID NO: 19-20 (protein)
chain 1: B2 chain 1 with S35A, S49I, N65H, L68A, A74M, N79H
chain 2: B7 chain 2 with A55M, N71I
folding stability by GdmCl denaturation [2]: increases stability | cooperativity of the pH-induced transition [3]: Neither of the mutations substantially affect the cooperativity | pH transition point of disassembly (pH set point, pH0) [3]: decreases the transition pH

B9: 2L6HC3_13: previous designed homotrimer lacking buried histidines, PDB ID 5J0H (protein)
chain: GTKYELRRALEELEKALRELKKSLDELERSLEELEKNPSEDALVENNRLNVENNKIIVEVLRIIAEVLKINAKSD
folding stability by GdmCl denaturation [2]: no change | folding stability by GdmCl denaturation ([2]; listed as 2L6C3_13): no destabilization | pH response of oligomeric state (pH-induced disassembly) [3]: no change in oligomeric state; also recorded: no significant pH response | pH response of oligomeric state (pH-induced disassembly) ([3]; listed as 2L6C3_13): not pH-sensitive

B10: SEQ ID NO: 39: similar to pRO2.3, Thrombin cleavage sites on each loop, destabilizing I56V mutation (protein)
chain: GSEEEIKRLLEELRKSSEELRRITKELDDLSKELRVGGSGSGSLVPRGSGSGSGSHALVEHNKLISEHNRIVVENNRIIVEILEAIARVGGSGSGSVEVERILDELRKSSEELDRVTKELKKLTEELDVGGSGSGSLVPRGSGSGSGSVEALVRHNVLITRHNDIVVKNNDIINKILKLIAEAVGGSGSGSELERILRELEESTKELRKATEELRRLSEELKVGGSGSGSLVPRGSGSGSGSHEALVRHNEAIVEHNKIVVKNNDIIVKILELITERI
kinetics of liposome disruption relative to pRO2.3, nanoparticle fusion [4, 5]: slower kinetics | liposome disruption relative to pRO2.3, nanoparticle fusion [4, 5]: close as well as pRO2.3
